Data published in PMC3537852.

Experiments:
[1] = target: myc-tagged full-length mAKAPβ with an internal deletion of residues 1257–1886; assay: co-IP
His-mAKAP 1286–1833 = assay: SPR

Row | Substance | percent reduction of RSK3 binding against full-length mAKAPβ [1] | fold decrease of binding affinity against unphosphorylated RSK3 (His-mAKAP 1286–1833)
1 | HA-tagged RSK3 (type 3 p90 ribosomal S6 kinase) (from UniProt Q15349 1-733) (enzyme) | > 85% | 
2 | His-RSK3, full-length, ERK and PDK1-phosphorylated (from UniProt Q15349 1-733) (enzyme) |  | 8 fold
3 | His-RSK3, full-length, ERK-phosphorylated (from UniProt Q15349 1-733) (enzyme) |  | 5 fold
